# Results published in US20200317768A1 (published 2020).
# Substitutions are numbered along the chain they refer to.
# T1: cynomolgus monkey FcγRIIa1 extracellular domain, C-terminal His-tag (cynomolgus monkey)
# T1 construct: also called cyno FcγRIIa1; cynoFcgRIIa1; not shown: His-tag added to C-terminus
# T1 chain: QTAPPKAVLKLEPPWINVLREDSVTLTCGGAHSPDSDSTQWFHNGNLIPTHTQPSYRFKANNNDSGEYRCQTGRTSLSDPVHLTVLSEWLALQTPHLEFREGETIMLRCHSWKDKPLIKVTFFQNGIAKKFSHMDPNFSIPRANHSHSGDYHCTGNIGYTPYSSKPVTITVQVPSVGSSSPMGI
# T2: cynomolgus monkey FcγRIIa2 extracellular domain, C-terminal His-tag (cynomolgus monkey)
# T2 construct: also called cyno FcγRIIa2; cynoFcgRIIa2; not shown: His-tag added to C-terminus
# T2 chain: T1 chain with P95T, T121A, I127K, A128S, K130N, D135N, R142Q
# T3: cynomolgus monkey FcγRIIa3 extracellular domain, C-terminal His-tag (cynomolgus monkey)
# T3 construct: also called cyno FcγRIIa3; cynoFcgRIIa3; not shown: His-tag added to C-terminus
# T3 chain: T1 chain with P95T, T121A, A128S, H133P, D135N
# T4: cynomolgus monkey FcγRIIb extracellular domain, C-terminal His-tag (cynomolgus monkey)
# T4 construct: also called cyno FcγRIIb; cynoFcγRIIb; not shown: His-tag added to C-terminus
# T4 chain: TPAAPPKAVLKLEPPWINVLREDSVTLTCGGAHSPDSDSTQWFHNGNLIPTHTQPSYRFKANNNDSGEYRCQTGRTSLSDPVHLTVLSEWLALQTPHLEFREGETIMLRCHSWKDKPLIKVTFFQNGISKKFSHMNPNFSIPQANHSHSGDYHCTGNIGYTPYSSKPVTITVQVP
# T5: human FcγRIIaH extracellular domain, C-terminal His-tag (human, UniProt P12318 34-217)
# T5 construct: also called human FcγRIIa (type H); FcgRIIaH; not shown: His-tag added to C-terminus
# T5 sequence: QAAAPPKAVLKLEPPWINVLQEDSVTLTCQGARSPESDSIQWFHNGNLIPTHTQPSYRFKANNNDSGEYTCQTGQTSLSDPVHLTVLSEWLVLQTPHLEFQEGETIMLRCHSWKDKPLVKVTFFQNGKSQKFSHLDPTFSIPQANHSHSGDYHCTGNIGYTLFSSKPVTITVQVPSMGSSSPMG
# T6: human FcγRIIb extracellular domain, C-terminal His-tag (human, UniProt P31994 43-217)
# T6 construct: also called FcgRIIb (human); not shown: His-tag added to C-terminus
# T6 sequence: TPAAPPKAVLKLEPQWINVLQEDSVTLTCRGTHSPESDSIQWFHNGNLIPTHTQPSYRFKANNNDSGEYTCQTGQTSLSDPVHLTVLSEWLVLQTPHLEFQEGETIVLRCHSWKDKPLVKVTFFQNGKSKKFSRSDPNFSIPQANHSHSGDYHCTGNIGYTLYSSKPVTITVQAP
# B1: M103205H795-MY213/M103202L889-SK1 (antibody, human IgG1, kappa)
# heavy: QVTLKESGPVLVKPTETLTLTCTVSGIDLSHDDISWVRQAPGKGLEWVGIISYAGSTYYASWAKGRLTISKDTSKNQVVLTMTNMDPVDTATYYCARGVPAYSHGGDLWGQGTLVTVSSASTKGPSVFPLAPSSKSTSGGTAALGCLVKDYFPEPVTVSWNSGALTSGVHTFPAVLQSSGLYSLSSVVTVPSSSLGTQTYICNVNHKPSNTKVDKKVEPKSCDKTHTCPPCPAPELLNGPSVFLFPPKPKDTLMISRTPEVTCVVVDVSDEDPEVKFNWYVDGVEVHNAKTKPREEQYNSTYRVVSVLTVLHQDWLNGKEYKCKVSNKALPKPIEKTISKAKGQPREPQVYTLPPSREEMTKNQVSLTCLVKGFYPSDIAVEWESNGQPENNYKTTPKVLDSDGSFFLYSKLTVDKSRWQQGNVFSCSVMHEALHNHYTQKSLSLSP
# light: DIVMTQSPATLSLSPGERATLSCTSSQSVYHANWLSWFQQKPGQPPKLLIYWASTLAYGVPSRFSGSGSGTDFTLTISSLQPEDAATYYCAGGYGGGRYAFGQGTKVEIKRTVAAPSVFIFPPSDEQLKSGTASVVCLLNNFYPREAKVQWKVDNALQSGNSQESVTEQDSKDSTYSLSSTLTLSKADYEKHKVYACEVTHQGLSSPVTKSFNRGEC
# B2: M103205H795-MY228/M103202L889-SK1 (antibody, human IgG1, kappa)
# heavy: B1 heavy with N238G, G239Y, Q297L, K398P
# light: B1 light
# B3: M103205H795-MY270/M103202L889-SK1 (antibody, human IgG1, kappa)
# heavy: B1 heavy with N238H
# light: B1 light
# B4: M103205H795-MY269/M103202L889-SK1 (antibody, human IgG1, kappa)
# heavy: B1 heavy with N238M
# light: B1 light
# B5: M103205H795-MY227/M103202L889-SK1 (antibody, human IgG1, kappa)
# heavy: B1 heavy with N238G, G239Y
# light: B1 light
# B6: M103205H795-MY242/M103202L889-SK1 (antibody, human IgG1, kappa)
# heavy: B1 heavy with N238G, P240I
# light: B1 light
# B7: M103205H795-MY229/M103202L889-SK1 (antibody, human IgG1, kappa)
# heavy: B1 heavy with N238G, G239Y, Q297L
# light: B1 light
# B8: M103205H795-MY274/M103202L889-SK1 (antibody, human IgG1, kappa)
# heavy: B1 heavy with N238T
# light: B1 light
# B9: M103205H795-MY271/M103202L889-SK1 (antibody, human IgG1, kappa)
# heavy: B1 heavy with N238V
# light: B1 light
# B10: M103205H795-MY219/M103202L889-SK1 (antibody, human IgG1, kappa)
# heavy: B1 heavy with N238G, G239Y, K398P
# light: B1 light
# B11: M103205H795-MY272/M103202L889-SK1 (antibody, human IgG1, kappa)
# heavy: B1 heavy with N238Q
# light: B1 light
# B12: M103205H795-MY273/M103202L889-SK1 (antibody, human IgG1, kappa)
# heavy: B1 heavy with N238L
# light: B1 light
# Molecular target: T1, cynomolgus monkey FcγRIIa1 …
# Assay: SPR (Biacore), KD of SG1 / KD of variant;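 note: relative to parent M103205H795-SG1 carrying the SG1 human heavy chain constant region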
# Method: (§1) The kinetic analysis of interactions between these antibodies and FcγR was carried out using BIACORE® T200 or BIACORE® 4000 (GE Healthcare). HBS-EP+ (GE Healthcare) was used as the running buffer, and the measurement temperature was set to 25° C. A chip produced by immobilizing Protein A. Protein A/G or mouse anti-human IgG kappa light chain (BD Biosciences) onto a Series S Sensor Chip CM4 or CM5 (GE Healthcare) by the amine-coupling method was used. […] After the measurement, the antibody captured on the chip was washed off by allowing reaction with 10 mM glycine-HCl, pH1.5 and 25 mM NaOH so that the chip was regenerated and used repeatedly. The sensorgrams obtained as measurement results were analyzed by the 1:1 Langmuir binding model using the BIACORE® Evaluation Software to calculate the binding rate constant ka (L/mol/s) and dissociation rate constant kd (l/s), and the dissociation constant KD (mol/L) was calculated from these values. […] Regarding such interactions, KD values were calculated using the following 1:1 binding model described in BIACORE® T100 Software Handbook BR1006-48 Edition AE.
# (§2) The behavior of interacting molecules according to the 1:1 binding model on BIACORE® can be described by Equation 1: Req=C·R max/(KD+C)+RI, wherein, Req is a plot of steady-state binding levels to analyte concentration. C is concentration, RI is bulk refractive index contribution in the sample, and Rmax is analyte binding capacity of the surface. When this equation is rearranged, KD can be expressed as Equation 2: KD=C·Rmax/(Req−RI)−C. KD can be calculated by substituting the values of Rmax, RI, and C into Equation 1 or Equation 2. From the current measurement conditions, RI=0, C=2 μmol/L can be used.
row,KD fold (SG1 = 1) [fold],Binder
1,6,B1
2,1.1,B2
3,1.8,B3
4,1.4,B4
5,1.7,B5
6,0.7,B6
7,2,B7
8,3.6,B8
9,4.7,B9
10,0.5,B10
11,1.9,B11
12,0.8,B12

# Molecular target: T2, cynomolgus monkey FcγRIIa2 …
# Assay: SPR (Biacore), KD of SG1 / KD of variant;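 note: relative to parent M103205H795-SG1 carrying the SG1 human heavy chain constant region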
# Method: as §1, §2
row,KD fold (SG1 = 1) [fold],Binder
1,9.6,B1
2,1,B2
3,2.4,B3
4,2,B4
5,2,B5
6,1.2,B6
7,2.3,B7
8,6.4,B8
9,7.3,B9
10,1.3,B10
11,2.7,B11
12,1.5,B12

# Molecular target: T3, cynomolgus monkey FcγRIIa3 …
# Assay: SPR (Biacore), KD of SG1 / KD of variant;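 note: relative to parent M103205H795-SG1 carrying the SG1 human heavy chain constant region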
# Method: as §1, §2
row,KD fold (SG1 = 1) [fold],Binder
1,13.1,B1
2,4.7,B2
3,6.5,B3
4,2.7,B4
5,6.3,B5
6,2.9,B6
7,8.5,B7
8,8.5,B8
9,3.5,B9
10,3.1,B10
11,2.7,B11
12,1.5,B12

# Molecular target: T4, cynomolgus monkey FcγRIIb extracellular …
# Assay: SPR (Biacore), KD of SG1 / KD of variant;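 note: relative to parent M103205H795-SG1 carrying the SG1 human heavy chain constant region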
# Method: as §1, §2
row,KD fold (SG1 = 1) [fold],Binder
1,11.9,B1
2,1.6,B2
3,3.4,B3
4,2.8,B4
5,3.5,B5
6,1.6,B6
7,3.8,B7
8,7.8,B8
9,9.5,B9
10,1.4,B10
11,4.2,B11
12,1.5,B12

# Molecular target: T7, cynomolgus monkey FcγRIIIaS extracellular domain, C-terminal His-tag (cynomolgus monkey, UniProt A3RFZ7 21-206 (rhesus entry))
# T7 construct: also called cyno FcγRIIIaS; cynoFcγRIIIaS; not shown: His-tag added to C-terminus
# Assay: SPR (Biacore), KD of SG1 / KD of variant
# Method: as §1, §2
# T7 sequence (A3RFZ7 21-206): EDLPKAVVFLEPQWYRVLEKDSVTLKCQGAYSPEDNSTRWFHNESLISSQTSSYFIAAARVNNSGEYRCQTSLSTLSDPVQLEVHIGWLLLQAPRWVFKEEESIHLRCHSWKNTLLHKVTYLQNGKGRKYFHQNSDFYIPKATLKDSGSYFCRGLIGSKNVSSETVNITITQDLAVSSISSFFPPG
row,KD fold (SG1 = 1) [fold],Binder
1,0.19,B1
2,0.04,B2
3,0.33,B3
4,1.64,B4
5,0.09,B5
6,0.68,B6
7,0.09,B7
8,0.58,B8
9,0.41,B9
10,0.06,B10
11,1.24,B11
12,0.21,B12

# Molecular target: T5, human FcγRIIaH extracellular domain, …
# Assay: SPR (Biacore), KD of SG1 / KD of variant
# Method: as §1, §2
row,KD fold (SG1 = 1) [fold],Binder
1,2,B1
2,0.3,B2
3,9.5,B3
4,2.3,B4
5,0.5,B5
6,0.8,B6
7,0.7,B7
8,8.3,B8
9,15.7,B9
10,0.2,B10
11,7.5,B11
12,1.4,B12

# Molecular target: T6, human FcγRIIb extracellular domain, …
# Assay: SPR (Biacore), KD of SG1 / KD of variant
# Method: as §1, §2
row,KD fold (SG1 = 1) [fold],Binder
1,12.8,B1
2,15.3,B2
3,1.3,B3
4,2.2,B4
5,35.4,B5
6,2.4,B6
7,30.7,B7
8,4.8,B8
9,2.2,B9
10,13.5,B10
11,3.5,B11
12,0.9,B12

# Molecular target: T8, human FcγRIIIaV extracellular domain, C-terminal His-tag (human, UniProt P08637 17-208)
# T8 construct: also called FcgRIIIaV; not shown: His-tag added to C-terminus
# Assay: SPR (Biacore), KD of SG1 / KD of variant
# Method: as §1, §2
# T8 sequence (P08637 17-208 F176V): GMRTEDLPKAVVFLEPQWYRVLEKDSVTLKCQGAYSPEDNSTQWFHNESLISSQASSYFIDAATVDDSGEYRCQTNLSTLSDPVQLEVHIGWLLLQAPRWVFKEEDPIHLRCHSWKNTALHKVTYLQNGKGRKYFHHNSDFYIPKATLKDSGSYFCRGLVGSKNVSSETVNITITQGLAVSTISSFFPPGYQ
row,KD fold (SG1 = 1) [fold],Binder
1,0.03,B1
2,0.02,B2
3,0.22,B3
4,0.74,B4
5,0.04,B5
6,0.25,B6
7,0.02,B7
8,0.33,B8
9,0.35,B9
10,0.03,B10
11,0.93,B11
12,0.08,B12
